From paper PMC6086657, “Structure of the human volume regulated anion channel” (eLife, 2018)

Biological target: the molecule itself
Experiment: cryo-EM structure; SWELL1-FLAG homomer in 20 mM Tris pH 8, 150 mM NaCl, 0.05% digitonin, ~8 mg/mL on UltrAuFoil grids; C3 symmetry imposed; ~4 Å map

B1: human SWELL1 (LRRC8A) with a C-terminal FLAG-tag (SWELL1-GGG-FLAG) (natural protein, UniProt Q8IWT6 1-810, looked up)
chain: MIPVTELRYFADTQPAYRILKPWWDVFTDYISIVMLMIAVFGGTLQVTQDKMICLPCKWVTKDSCNDSFRGWAAPGPEPTYPNSTILPTPDTGPTGIKYDLDRHQYNYVDAVCYENRLHWFAKYFPYLVLLHTLIFLACSNFWFKFPRTSSKLEHFVSILLKCFDSPWTTRALSETVVEESDPKPAFSKMNGSMDKKSSTVSEDVEATVPMLQRTKSRIEQGIVDRSETGVLDKKEGEQAKALFEKVKKFRTHVEEGDIVYRLYMRQTIIKVIKFILIICYTVYYVHNIKFDVDCTVDIESLTGYRTYRCAHPLATLFKILASFYISLVIFYGLICMYTLWWMLRRSLKKYSFESIREESSYSDIPDVKNDFAFMLHLIDQYDPLYSKRFAVFLSEVSENKLRQLNLNNEWTLDKLRQRLTKNAQDKLELHLFMLSGIPDTVFDLVELEVLKLELIPDVTIPPSIAQLTGLKELWLYHTAAKIEAPALAFLRENLRALHIKFTDIKEIPLWIYSLKTLEELHLTGNLSAENNRYIVIDGLRELKRLKVLRLKSNLSKLPQVVTDVGVHLQKLSINNEGTKLIVLNSLKKMANLTELELIRCDLERIPHSIFSLHNLQEIDLKDNNLKTIEEIISFQHLHRLTCLKLWYNHIAYIPIQIGNLTNLERLYLNRNKIEKIPTQLFYCRKLRYLDLSHNNLTFLPADIGLLQNLQNLAITANRIETLPPELFQCRKLRALHLGNNVLQSLPSRVGELTNLTQIELRGNRLECLPVELGECPLLKRSGLVVEEDLFNTLPPEVKERLWRADKEQA
notes: SWELL1 (LRRC8A), human, UniProt Q8IWT6, cDNA Origene #RC208632; the abstract calls it full-length; the model holds residues 15-68, 94-174, 232-802 (inner subunit) and 15-68, 94-175, 214-802 (outer subunit); Homohexamer (trimer of dimers); The solubilization buffer held 2 mg/mL iodoacetamide; One endogenous SWELL1 allele remained intact in the expression cell line; also called SWELL1-FLAG; …
- stoichiometry N: 6
